From paper PMC12412652 (2025)
Changes are numbered by the printed parent chain.

Assays:
Test in all cases: BLI
[1] = molecular target: T1, BCL-B (Homo sapiens)
T1 chain: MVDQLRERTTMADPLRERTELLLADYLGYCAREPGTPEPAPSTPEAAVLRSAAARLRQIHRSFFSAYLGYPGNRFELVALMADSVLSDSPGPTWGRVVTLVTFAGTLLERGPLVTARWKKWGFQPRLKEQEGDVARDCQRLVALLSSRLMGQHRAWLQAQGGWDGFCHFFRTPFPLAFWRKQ

[2] = molecular target: BCL-2 (UniProt P10415 1-239, biotin)
[3] = molecular target: T2, BFL-1 (UniProt Q16548 1-175, biotin)
T2 chain: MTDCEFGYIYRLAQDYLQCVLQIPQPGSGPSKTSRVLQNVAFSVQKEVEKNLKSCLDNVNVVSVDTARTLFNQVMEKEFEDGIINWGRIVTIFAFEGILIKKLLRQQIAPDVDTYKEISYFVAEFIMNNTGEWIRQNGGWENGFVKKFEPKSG

[4] = molecular target: T3, MBP-BAK 16-186, biotinylated (Avi tag, 6-histidine tag) (human, UniProt Q16611 16-186, biotin on the Avi tag (enzymatic, BirA))
T3 chain: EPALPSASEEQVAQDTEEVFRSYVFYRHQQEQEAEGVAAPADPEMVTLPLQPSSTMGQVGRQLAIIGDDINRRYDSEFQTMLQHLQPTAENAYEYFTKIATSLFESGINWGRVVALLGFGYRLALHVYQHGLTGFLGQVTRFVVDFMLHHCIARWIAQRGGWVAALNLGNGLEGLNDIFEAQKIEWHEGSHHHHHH

[5] = molecular target: MBP-BAX 1-166 C62S C126S, biotinylated (Avi tag, 6-histidine tag) (human, UniProt Q07812 1-166, C62S | C126S, biotin on the Avi tag (enzymatic, BirA))
MBP-BAX 1-166 C62S C126S, biotinylated (Avi tag, 6-histidine tag), sequence (Q07812 1-166 C62S/C126S): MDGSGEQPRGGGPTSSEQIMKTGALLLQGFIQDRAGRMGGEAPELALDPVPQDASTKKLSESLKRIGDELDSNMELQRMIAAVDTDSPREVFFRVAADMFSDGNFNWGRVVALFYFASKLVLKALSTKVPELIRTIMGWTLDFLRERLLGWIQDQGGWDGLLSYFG

[6] = molecular target: T4, MCL-1 (Homo sapiens)
T4 chain: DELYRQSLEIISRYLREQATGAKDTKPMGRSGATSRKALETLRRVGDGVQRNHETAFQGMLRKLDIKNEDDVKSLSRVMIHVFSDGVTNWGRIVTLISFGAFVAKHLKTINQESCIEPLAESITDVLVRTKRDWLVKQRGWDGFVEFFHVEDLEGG

[7] = molecular target: T5, BCL-W (Homo sapiens)
T5 chain: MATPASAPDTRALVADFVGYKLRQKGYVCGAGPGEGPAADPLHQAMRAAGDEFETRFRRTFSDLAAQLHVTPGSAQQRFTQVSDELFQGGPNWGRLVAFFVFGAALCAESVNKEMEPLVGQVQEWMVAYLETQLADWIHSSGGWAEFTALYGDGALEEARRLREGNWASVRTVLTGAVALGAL

[8] = molecular target: MBP-BAK 16-186, biotinylated (Avi tag, 6-histidine tag) (human, UniProt Q16611 16-186, biotin on the Avi tag (enzymatic, BirA)); remark: listed apart in the source
[9] = molecular target: BCL-XL (Homo sapiens)
BCL-XL (Homo sapiens), sequence (chain, as listed by the source): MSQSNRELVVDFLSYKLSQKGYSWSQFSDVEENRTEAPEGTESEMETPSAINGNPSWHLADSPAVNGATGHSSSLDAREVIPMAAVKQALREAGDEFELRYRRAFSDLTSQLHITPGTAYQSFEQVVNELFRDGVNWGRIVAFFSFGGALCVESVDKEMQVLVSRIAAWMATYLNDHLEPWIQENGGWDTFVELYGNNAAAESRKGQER

BCL-2, sequence (P10415 1-207): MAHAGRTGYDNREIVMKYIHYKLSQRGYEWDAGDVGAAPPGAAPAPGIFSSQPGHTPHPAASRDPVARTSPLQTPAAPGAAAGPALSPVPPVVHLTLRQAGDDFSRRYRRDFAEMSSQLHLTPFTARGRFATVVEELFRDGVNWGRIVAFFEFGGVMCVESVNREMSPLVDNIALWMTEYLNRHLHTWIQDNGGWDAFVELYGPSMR

B1: αBAK2 (designed binder)
chain: GADPKKVLDKADDQMENVVVTLKQELEELAKERRKLDLTQSEKIELKLRYIVAHLAAIGDIEEAIREAKEEADKLKKAGLVNSQQFAEFKRRLEELHKEADRKRRDYAEEFRNKLEYG
modifications: biotinylated for BLI (Avi tag). Limits not given; the soluble form lacking the transmembrane segment (183-200) is taken by convention
Q: How did the Kd [1] turn out when B1 was run?
A: 3000 nM

B2: αBAX2 (designed binder)
chain: GADPKKVLDKARDQAENRVRELRQKLTELYKEARKLDLTQEERRKLIKRYKAAMNEAIKDIHEAIEQAKEEADKLKDAGLVNEQQLKELKQRLNEKALAAAFRASGDTWHARRKLQYG
Q: Which Kd [2] does the source give for B2 here?
A: 2300 nM

Q: What about the Kd [3] of the same binder?
A: 300 nM

Q: And the Kd [4]?
A: > 9000 nM

B3: αBAK2 (designed binder)
chain: B1 chain
Q: For B3, which Kd [2] is on record?
A: 133 nM

Q: What about the Kd [5] of the same binder?
A: > 9000 nM

Q: What about the Kd [3] of the same binder?
A: 960 nM

B4: αBAK2 (designed binder)
chain: B1 chain
modifications: biotinylated for BLI (Avi tag). Limits not given; the conventional BCL-2-fold core 172-327 is taken
Q: For B4, which Kd [6] is on record?
A: 310 nM

B5: BAK-CDP02 (BAK-targeting computationally designed protein 02 of 11) (designed binder)
chain: GADPKKVLDKAKDQAENVVRKLKQILEELYKEARKLDLTQDEKIELILRYIAAMLAAIGDILEAIRQAKEEADKLKKAGLVNSQQLDELKRRLEELRKEAARKARDYAEEFRNKLEYG
Q: Which Kd [2] does the source give for B5 here?
A: 130 nM

Q: And the Kd [3]?
A: 10 nM

B6: αBAX1 (designed binder)
chain: B2 chain with R23A, T27E, I47E, N55E, K96L, L98I, W109I, H110E, A111F
modifications: biotinylated for BLI (Avi tag). Limits not printed in the text (constructs as in cited earlier work); the soluble form lacking the C-terminal tail is taken by convention. Any solubility mutations are not stated
Q: With B6 as the binder, how does the Kd [7] read?
A: 300000 nM

B7: αBAX1 (designed binder)
chain: B2 chain with R23A, T27E, I47E, N55E, K96L, L98I, W109I, H110E, A111F
Q: What does the source list for B7?
A: Kd [2]: 3500 nM; Kd [5]: 1.43 nM; Kd [8]: > 20000 nM

B8: BAK-CDP02 (BAK-targeting computationally designed protein 02 of 11) (designed binder)
chain: B5 chain
modifications: biotinylated for BLI (Avi tag). Limits not given; the soluble form lacking the transmembrane segment (183-200) is taken by convention
Q: B8 was tested. Which Kd [1] did it give?
A: 200 nM

B9: αBAX2 (designed binder)
chain: B2 chain
modifications: biotinylated for BLI (Avi tag). Limits not given; the conventional BCL-2-fold core 172-327 is taken
Q: How did the Kd [6] turn out when B9 was run?
A: 18000 nM

B10: αBAK1 (designed binder)
chain: B1 chain with D12K, V20R, T21K, E25I, R33A, S41D, K47I, F86L, A87D
modifications: biotinylated for BLI (Avi tag). Limits not printed in the text (constructs as in cited earlier work); the soluble form lacking the C-terminal tail is taken by convention. Any solubility mutations are not stated
Q: With B10 as the binder, how does the Kd [7] read?
A: 9550 nM

B11: BAX-CDP01 (BAX-targeting computationally designed protein 01) (designed binder)
chain: GADPKKVLDKARDQAENRVRELAQKLEELYKEARKLDLTQEERRKLEKRYKAAMEEAIKDIREAIRQAKQEADKLKKAGLVNSQQLKELKQRLNELAIAAALRAIGDAIEFRRKLQYG
modifications: biotinylated for BLI (Avi tag). Limits not given; the soluble form lacking the transmembrane segment (210-226) is taken by convention. Any loop deletion is not stated
Q: Which Kd [9] does the source give for B11 here?
A: 38 nM

B12: BAX-CDP01 (BAX-targeting computationally designed protein 01) (designed binder)
chain: B11 chain
Q: For B12, which Kd [2] is on record?
A: 50 nM

Q: What about the Kd [8] of the same binder?
A: 3100 nM

Q: And the Kd [3]?
A: 23 nM

B13: αBAX2 (designed binder)
chain: B2 chain
modifications: biotinylated for BLI (Avi tag). Limits not given; the soluble form lacking the transmembrane segment (210-226) is taken by convention. Any loop deletion is not stated
Q: B13 was tested. Which Kd [9] did it give?
A: 1090 nM

B14: αBAK2 (designed binder)
chain: B1 chain
modifications: biotinylated for BLI (Avi tag). Limits not given; the soluble form lacking the transmembrane segment (210-226) is taken by convention. Any loop deletion is not stated
Q: B14 was tested. Which Kd [9] did it give?
A: 5700 nM

B15: αBAK1 (designed binder)
chain: B1 chain with D12K, V20R, T21K, E25I, R33A, S41D, K47I, F86L, A87D
Q: For B15, which Kd [5] is on record?
A: 10000 nM

Q: What about the Kd [3] of the same binder?
A: 1700 nM

B16: BAK-CDP02 (BAK-targeting computationally designed protein 02 of 11) (designed binder)
chain: B5 chain
modifications: biotinylated for BLI (Avi tag). Limits not given; the soluble form lacking the transmembrane segment (210-226) is taken by convention. Any loop deletion is not stated
Q: With B16 as the binder, how does the Kd [9] read?
A: 30000 nM

B17: BAX-CDP01 (BAX-targeting computationally designed protein 01) (designed binder)
chain: B11 chain
modifications: biotinylated for BLI (Avi tag). Limits not printed in the text (constructs as in cited earlier work); the soluble form lacking the C-terminal tail is taken by convention. Any solubility mutations are not stated
Q: For B17, which Kd [7] is on record?
A: 6000 nM

B18: BAK-CDP02 (BAK-targeting computationally designed protein 02 of 11) (designed binder)
chain: B5 chain
modifications: biotinylated for BLI (Avi tag). Limits not given; the conventional BCL-2-fold core 172-327 is taken
Q: How did the Kd [6] turn out when B18 was run?
A: 5.4 nM

B19: αBAK1 (designed binder)
chain: B1 chain with D12K, V20R, T21K, E25I, R33A, S41D, K47I, F86L, A87D
modifications: biotinylated for BLI (Avi tag). Limits not given; the soluble form lacking the transmembrane segment (210-226) is taken by convention. Any loop deletion is not stated
Q: Which Kd [9] does the source give for B19 here?
A: 100000 nM

B20: αBAK1 (designed binder)
chain: B1 chain with D12K, V20R, T21K, E25I, R33A, S41D, K47I, F86L, A87D
modifications: biotinylated for BLI (Avi tag). Limits not given; the conventional BCL-2-fold core 172-327 is taken
Q: How did the Kd [6] turn out when B20 was run?
A: 500 nM

B21: αBAX2 (designed binder)
chain: B2 chain
modifications: biotinylated for BLI (Avi tag). Limits not given; the soluble form lacking the transmembrane segment (183-200) is taken by convention
Q: How did the Kd [1] turn out when B21 was run?
A: 80000 nM

B22: BAX-CDP01 (BAX-targeting computationally designed protein 01) (designed binder)
chain: B11 chain
modifications: biotinylated for BLI (Avi tag). Limits not given; the conventional BCL-2-fold core 172-327 is taken
Q: For B22, which Kd [6] is on record?
A: 10 nM

B23: αBAX1 (designed binder)
chain: B11 chain with R62H, R66E, Q70E, K77D, S83E, L102F, I105S, A108T
modifications: biotinylated for BLI (Avi tag). Limits not given; the soluble form lacking the transmembrane segment (210-226) is taken by convention. Any loop deletion is not stated
Q: Which Kd [9] does the source give for B23 here?
A: 510 nM

B24: BAK-CDP02 (BAK-targeting computationally designed protein 02 of 11) (designed binder)
chain: B5 chain
modifications: biotinylated for BLI (Avi tag). Limits not printed in the text (constructs as in cited earlier work); the soluble form lacking the C-terminal tail is taken by convention. Any solubility mutations are not stated
Q: Which Kd [7] does the source give for B24 here?
A: 800 nM

B25: BAX-CDP01 (BAX-targeting computationally designed protein 01) (designed binder)
chain: B11 chain
modifications: biotinylated for BLI (Avi tag). Limits not given; the soluble form lacking the transmembrane segment (183-200) is taken by convention
Q: B25 was tested. Which Kd [1] did it give?
A: 2000 nM

B26: αBAK2 (designed binder)
chain: B1 chain
modifications: biotinylated for BLI (Avi tag). Limits not printed in the text (constructs as in cited earlier work); the soluble form lacking the C-terminal tail is taken by convention. Any solubility mutations are not stated
Q: Which Kd [7] does the source give for B26 here?
A: 5000 nM

B27: αBAX1 (designed binder)
chain: B11 chain with R62H, R66E, Q70E, K77D, S83E, L102F, I105S, A108T
modifications: biotinylated for BLI (Avi tag). Limits not given; the conventional BCL-2-fold core 172-327 is taken
Q: Which Kd [6] does the source give for B27 here?
A: 600 nM

B28: αBAK1 (designed binder)
chain: B1 chain with D12K, V20R, T21K, E25I, R33A, S41D, K47I, F86L, A87D
modifications: biotinylated for BLI (Avi tag). Limits not given; the soluble form lacking the transmembrane segment (183-200) is taken by convention
Q: Which Kd [1] does the source give for B28 here?
A: 12000 nM

B29: αBAX1 (designed binder)
chain: B11 chain with R62H, R66E, Q70E, K77D, S83E, L102F, I105S, A108T
modifications: biotinylated for BLI (Avi tag). Limits not given; the soluble form lacking the transmembrane segment (183-200) is taken by convention
Q: With B29 as the binder, how does the Kd [1] read?
A: > 20000 nM

B30: αBAX2 (designed binder)
chain: B2 chain
modifications: biotinylated for BLI (Avi tag). Limits not printed in the text (constructs as in cited earlier work); the soluble form lacking the C-terminal tail is taken by convention. Any solubility mutations are not stated
Q: B30 was tested. Which Kd [7] did it give?
A: 30000 nM
